Here are results for 4 proteins from publication PMC3939451.

The nature of data set [1]: steady-state immunoblot, HEK293. The note with it: glycan lost.
A short description of data set [2]: CHX chase, immunoblot, percent remaining. The note with it: glycan lost; control: WT-ABCG8.

B1: ABCG5: N584Q (protein)
parent chain: MGDLSSLTPGGSMGLQVNRGSQSSLEGAPATAPEPHSLGILHASYSVSHRVRPWWDITSCRQQWTRQILKDVSLYVESGQIMCILGSSGSGKTTLLDAMSGRLGRAGTFLGEVYVNGRALRREQFQDCFSYVLQSDTLLSSLTVRETLHYTALLAIRRGNPGSFQKKVEAVMAELSLSHVADRLIGNYSLGGISTGERRRVSIAAQLLQDPKVMLFDEPTTGLDCMTANQIVVLLVELARRNRIVVLTIHQPRSELFQLFDKIAILSFGELIFCGTPAEMLDFFNDCGYPCPEHSNPFDFYMDLTSVDTQSKEREIETSKRVQMIESAYKKSAICHKTLKNIERMKHLKTLPMVPFKTKDSPGVFSKLGVLLRRVTRNLVRNKLAVITRLLQNLIMGLFLLFFVLRVRSNVLKGAIQDRVGLLYQFVGATPYTGMLNAVNLFPVLRAVSDQESQDGLYQKWQMMLAYALHVLPFSVVATMIFSSVCYWTLGLHPEVARFGYFSAALLAPHLIGEFLTLVLLGIVQNPNIVNSVVALLSIAGVLVGSGFLRNIQEMPIPFKIISYFTFQKYCSEILVVNEFYGLNFTCGSSNVSVTTNPMCAFTQGIQFIEKTCPGATSRFTMNFLILYSFIPALVILGIVVFKIRDHLISR
Turning to B1, in data set [1] (control: WT-ABCG5), the expression_or_secretion result is on record as “decreases”.

B2: ABCG5: N591Q (protein)
parent chain: B1 parent chain
On to B2, for which, in data set [1] (control: WT-ABCG5), the expression_or_secretion result is reported as “decreases”.

B3: ABCG5: N584Q/N591Q (protein)
parent chain: B1 parent chain
Turning to B3, the expression_or_secretion entry in data set [1] (control: WT-ABCG5) is listed as “decreases”.

B4: ABCG8: N619Q (protein)
parent chain: MAGKAAEERGLPKGATPQDTSGLQDRLFSSESDNSLYFTYSGQPNTLEVRDLNYQVDLASQVPWFEQLAQFKMPWTSPSCQNSCELGIQNLSFKVRSGQMLAIIGSSGCGRASLLDVITGRGHGGKIKSGQIWINGQPSSPQLVRKCVAHVRQHNQLLPNLTVRETLAFIAQMRLPRTFSQAQRDKRVEDVIAELRLRQCADTRVGNMYVRGLSGGERRRVSIGVQLLWNPGILILDEPTSGLDSFTAHNLVKTLSRLAKGNRLVLISLHQPRSDIFRLFDLVLLMTSGTPIYLGAAQHMVQYFTAIGYPCPRYSNPADFYVDLTSIDRRSREQELATREKAQSLAALFLEKVRDLDDFLWKAETKDLDEDTCVESSVTPLDTNCLPSPTKMPGAVQQFTTLIRRQISNDFRDLPTLLIHGAEACLMSMTIGFLYFGHGSIQLSFMDTAALLFMIGALIPFNVILDVISKCYSERAMLYYELEDGLYTTGPYFFAKILGELPEHCAYIIIYGMPTYWLANLRPGLQPFLLHFLLVWLVVFCCRIMALAAAALLPTFHMASFFSNALYNSFYLAGGFMINLSSLWTVPAWISKVSFLRWCFEGLMKIQFSRRTYKMPLGNLTIAVSGDKILSVMELDSYPLYAIYLIVIGLSGGFMVLYYVSLRFIKQKPSQDW
With B4, the expression_or_secretion entry in data set [1] (control: WT-ABCG8) is “decreases”. The degradation_or_half_life entry in data set [2] is “decreases, 44.40% vs. 43.95% at 2 hrs; 26.01% vs. 29.36% at 4 hrs”.
